Values belong to the binder of their own block, whether it stands above or below them.
Assays:
P7A = molecular target: T1, P7A; assay: two-hybrid library CCNG1;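 further: natural log of median RNA to DNA barcode read ratio; higher means stronger binding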
T1 chain: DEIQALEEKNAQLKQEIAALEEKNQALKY

P9A = molecular target: T2, P9A; assay: two-hybrid library CCNG1;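 further: natural log of median RNA to DNA barcode read ratio; higher means stronger binding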
T2 chain: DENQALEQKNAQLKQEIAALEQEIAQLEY

P6A = molecular target: T3, P6A; assay: two-hybrid library CCNG1;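 further: natural log of median RNA to DNA barcode read ratio; higher means stronger binding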
T3 chain: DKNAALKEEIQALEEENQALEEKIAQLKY

P3A = molecular target: T4, P3A; assay: two-hybrid library CCNG1;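 further: natural log of median RNA to DNA barcode read ratio; higher means stronger binding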
T4 chain: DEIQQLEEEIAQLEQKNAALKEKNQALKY

P5A = molecular target: T5, P5A; assay: two-hybrid library CCNG1
T5 chain: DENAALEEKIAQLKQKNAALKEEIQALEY

P12A = molecular target: T6, P12A; assay: two-hybrid library CCNG1
T6 chain: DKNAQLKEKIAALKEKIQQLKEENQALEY

P1A = molecular target: T7, P1A; assay: two-hybrid library CCNG1
T7 chain: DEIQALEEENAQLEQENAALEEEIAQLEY

P8A = molecular target: T8, P8A; assay: two-hybrid library CCNG1
T8 chain: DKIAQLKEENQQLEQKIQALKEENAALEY

P4A = molecular target: T9, P4A; assay: two-hybrid library CCNG1
T9 chain: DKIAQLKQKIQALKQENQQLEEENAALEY

P11A = molecular target: T10, P11A; assay: two-hybrid library CCNG1
T10 chain: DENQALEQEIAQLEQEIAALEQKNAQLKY

P2A = molecular target: T11, P2A; assay: two-hybrid library CCNG1
T11 chain: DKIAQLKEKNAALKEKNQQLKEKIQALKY

P2-AA-1HAA-V = molecular target: T12, P2-AA-1HAA-V; assay: two-hybrid library CCmax; conditions: mean of both orientations
T12 chain: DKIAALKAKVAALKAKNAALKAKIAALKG

P2-AA-1HAA-R = molecular target: T13, P2-AA-1HAA-R; assay: two-hybrid library CCmax; conditions: mean of both orientations
T13 chain: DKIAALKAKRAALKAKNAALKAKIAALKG

P2-AA-1HAA-D = molecular target: T14, P2-AA-1HAA-D; assay: two-hybrid library CCmax; conditions: mean of both orientations
T14 chain: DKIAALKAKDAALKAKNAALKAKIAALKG

P2-AA-1HAA-I = molecular target: T15, P2-AA-1HAA-I; assay: two-hybrid library CCmax; conditions: mean of both orientations
T15 chain: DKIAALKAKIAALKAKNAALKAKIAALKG

P2-AA-1HAA-H = molecular target: T16, P2-AA-1HAA-H; assay: two-hybrid library CCmax; conditions: mean of both orientations
T16 chain: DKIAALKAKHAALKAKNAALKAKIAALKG

P2-AA = molecular target: T17, P2-AA; assay: two-hybrid library CCmax; conditions: mean of both orientations
T17 chain: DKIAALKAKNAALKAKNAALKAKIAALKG

P2-AA-1HAA-S = molecular target: T18, P2-AA-1HAA-S; assay: two-hybrid library CCmax; conditions: mean of both orientations
T18 chain: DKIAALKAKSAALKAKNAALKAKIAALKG

P2-AA-1HAA-T = molecular target: T19, P2-AA-1HAA-T; assay: two-hybrid library CCmax; conditions: mean of both orientations
T19 chain: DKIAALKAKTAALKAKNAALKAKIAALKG

P2-AA-1HAA-E = molecular target: T20, P2-AA-1HAA-E; assay: two-hybrid library CCmax; conditions: mean of both orientations
T20 chain: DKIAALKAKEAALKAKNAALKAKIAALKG

4H1158-bH = molecular target: T21, 4H1158-bH; assay: two-hybrid library CCNG1
T21 chain: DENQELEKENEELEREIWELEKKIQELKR

4H683-bH = molecular target: T22, 4H683-bH; assay: two-hybrid library CCNG1
T22 chain: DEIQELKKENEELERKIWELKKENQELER

4H3112-bH = molecular target: T23, 4H3112-bH; assay: two-hybrid library CCNG1
T23 chain: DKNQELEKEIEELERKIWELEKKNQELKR

4H170-bH = molecular target: T24, 4H170-bH; assay: two-hybrid library CCNG1
T24 chain: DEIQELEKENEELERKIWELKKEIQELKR

4H2586-bH = molecular target: T25, 4H2586-bH; assay: two-hybrid library CCNG1
T25 chain: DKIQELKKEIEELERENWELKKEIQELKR

4H2702-bH = molecular target: T26, 4H2702-bH; assay: two-hybrid library CCNG1
T26 chain: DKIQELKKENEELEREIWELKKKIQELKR

4H575-bH = molecular target: T27, 4H575-bH; assay: two-hybrid library CCNG1
T27 chain: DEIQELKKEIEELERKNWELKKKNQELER

4H918-bH = molecular target: T28, 4H918-bH; assay: two-hybrid library CCNG1
T28 chain: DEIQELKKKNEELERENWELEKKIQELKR

4H2673-bH = molecular target: T29, 4H2673-bH; assay: two-hybrid library CCNG1
T29 chain: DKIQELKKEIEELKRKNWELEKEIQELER

4H4073-bH = molecular target: T30, 4H4073-bH; assay: two-hybrid library CCNG1
T30 chain: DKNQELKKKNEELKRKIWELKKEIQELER

4H968-bH = molecular target: T31, 4H968-bH; assay: two-hybrid library CCNG1
T31 chain: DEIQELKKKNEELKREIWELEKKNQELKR

4H797-bH = molecular target: T32, 4H797-bH; assay: two-hybrid library CCNG1
T32 chain: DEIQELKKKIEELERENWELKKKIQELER

4H1831-bH = molecular target: T33, 4H1831-bH; assay: two-hybrid library CCNG1
T33 chain: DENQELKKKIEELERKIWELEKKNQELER

4H3926-bH = molecular target: T34, 4H3926-bH; assay: two-hybrid library CCNG1
T34 chain: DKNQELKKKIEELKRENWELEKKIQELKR

4H953-bH = molecular target: T35, 4H953-bH; assay: two-hybrid library CCNG1
T35 chain: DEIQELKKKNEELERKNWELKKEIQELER

4H754-bH = molecular target: T36, 4H754-bH; assay: two-hybrid library CCNG1
T36 chain: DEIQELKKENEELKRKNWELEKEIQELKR

4H118-bH = molecular target: T37, 4H118-bH; assay: two-hybrid library CCNG1
T37 chain: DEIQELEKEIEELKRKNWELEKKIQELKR

4H3010-bH = molecular target: T38, 4H3010-bH; assay: two-hybrid library CCNG1
T38 chain: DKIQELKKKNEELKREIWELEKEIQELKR

4H346-bH = molecular target: T39, 4H346-bH; assay: two-hybrid library CCNG1
T39 chain: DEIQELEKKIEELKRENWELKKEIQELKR

4H855-bH = molecular target: T40, 4H855-bH; assay: two-hybrid library CCNG1
T40 chain: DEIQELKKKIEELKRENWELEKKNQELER

4H2627-bH = molecular target: T41, 4H2627-bH; assay: two-hybrid library CCNG1
T41 chain: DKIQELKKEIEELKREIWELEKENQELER

4H3427-bH = molecular target: T42, 4H3427-bH; assay: two-hybrid library CCNG1
T42 chain: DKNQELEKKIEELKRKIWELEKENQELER

4H780-bH = molecular target: T43, 4H780-bH; assay: two-hybrid library CCNG1
T43 chain: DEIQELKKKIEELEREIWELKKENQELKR

4H457-bH = molecular target: T44, 4H457-bH; assay: two-hybrid library CCNG1
T44 chain: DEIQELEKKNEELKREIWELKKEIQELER

P12bHq = molecular target: T45, P12bHq; assay: two-hybrid library CCNG1
T45 chain: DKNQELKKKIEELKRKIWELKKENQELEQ

P4bHq = molecular target: T46, P4bHq; assay: two-hybrid library CCNG1
T46 chain: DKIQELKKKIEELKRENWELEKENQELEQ

P6bHq = molecular target: T47, P6bHq; assay: two-hybrid library CCNG1
T47 chain: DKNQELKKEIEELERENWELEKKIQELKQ

P7bHq = molecular target: T48, P7bHq; assay: two-hybrid library CCNG1
T48 chain: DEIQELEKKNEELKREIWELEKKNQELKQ

P2bHq = molecular target: T49, P2bHq; assay: two-hybrid library CCNG1
T49 chain: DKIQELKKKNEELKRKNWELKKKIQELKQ

P1bHq = molecular target: T50, P1bHq; assay: two-hybrid library CCNG1
T50 chain: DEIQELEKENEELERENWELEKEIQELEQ

P5bHq = molecular target: T51, P5bHq; assay: two-hybrid library CCNG1
T51 chain: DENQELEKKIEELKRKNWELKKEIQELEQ

P3bHq = molecular target: T52, P3bHq; assay: two-hybrid library CCNG1
T52 chain: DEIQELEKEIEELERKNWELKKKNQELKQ

P8bHq = molecular target: T53, P8bHq; assay: two-hybrid library CCNG1
T53 chain: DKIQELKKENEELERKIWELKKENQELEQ

P9bHq = molecular target: T54, P9bHq; assay: two-hybrid library CCNG1
T54 chain: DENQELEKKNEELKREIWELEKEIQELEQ

B1: P11A (peptide)
chain: DENQALEQEIAQLEQEIAALEQKNAQLKY
interaction score (P7A): -1.77
interaction score (P9A): 0.145
interaction score (P6A): -0.873
interaction score (P3A): 0.195
interaction score (P5A): 0.167
interaction score (P12A): 2.09
interaction score (P1A): -0.233
interaction score (P8A): -0.16
interaction score (P4A): 1.99
interaction score (P11A): -0.318
interaction score (P2A): -0.397

B2: P1-AA-1HAA-L (peptide)
chain: DEIAALEAELAALEAENAALEAEIAALEG
interaction score (P2-AA-1HAA-V): 1.87
interaction score (P2-AA-1HAA-R): 1.98
interaction score (P2-AA-1HAA-D): 1.71
interaction score (P2-AA-1HAA-I): 1.62
interaction score (P2-AA-1HAA-H): 1.95
interaction score (P2-AA): 1.84
interaction score (P2-AA-1HAA-S): 1.77
interaction score (P2-AA-1HAA-T): 1.93
interaction score (P2-AA-1HAA-E): 1.89

B3: P1-AA-1HAA-T (peptide)
chain: DEIAALEAETAALEAENAALEAEIAALEG
interaction score (P2-AA-1HAA-V): 2.02
interaction score (P2-AA-1HAA-R): 1.93
interaction score (P2-AA-1HAA-D): 1.99
interaction score (P2-AA-1HAA-I): 2.05
interaction score (P2-AA-1HAA-H): 2.07
interaction score (P2-AA): 1.88
interaction score (P2-AA-1HAA-S): 2.1
interaction score (P2-AA-1HAA-T): 1.69
interaction score (P2-AA-1HAA-E): 2.02

B4: 4H1158-bH (peptide)
chain: DENQELEKENEELEREIWELEKKIQELKR
interaction score (4H1158-bH): 0.619
interaction score (4H683-bH): 1.13
interaction score (4H3112-bH): -0.598
interaction score (4H170-bH): 0.0131
interaction score (4H2586-bH): 0.198
interaction score (4H2702-bH): 0.109
interaction score (4H575-bH): 0.888
interaction score (4H918-bH): -0.233
interaction score (4H2673-bH): 0.836
interaction score (4H4073-bH): 1.57
interaction score (4H968-bH): 0.725
interaction score (4H797-bH): 0.508
interaction score (4H1831-bH): 0.197
interaction score (4H3926-bH): 1.63
interaction score (4H953-bH): 0.0112
interaction score (4H754-bH): 0.159
interaction score (4H118-bH): 0.729
interaction score (4H3010-bH): 1.95
interaction score (4H346-bH): 0.268
interaction score (4H855-bH): -0.335
interaction score (4H2627-bH): 1.81
interaction score (4H3427-bH): 0.596
interaction score (4H780-bH): 0.975
interaction score (4H457-bH): 0.951

The next lines start with the values.

interaction score (P12bHq): -0.763
interaction score (P4bHq): 0.195
interaction score (P6bHq): 0.286
interaction score (P7bHq): 0.639
interaction score (P2bHq): -0.425
interaction score (P1bHq): -1.45
interaction score (P5bHq): -0.597
interaction score (P3bHq): -0.851
interaction score (P8bHq): -0.489
interaction score (P9bHq): 1.15
B5: P12bHq (peptide)
chain: DKNQELKKKIEELKRKIWELKKENQELEQ

interaction score (P7A): -1.15
interaction score (P9A): -0.254
interaction score (P6A): -1.16
interaction score (P3A): 0.438
interaction score (P5A): -1.22
interaction score (P12A): -1.24
interaction score (P1A): -1.2
interaction score (P8A): -1.25
interaction score (P4A): -1.48
interaction score (P2A): -1.43
B6: P12A (peptide)
chain: DKNAQLKEKIAALKEKIQQLKEENQALEY

— paper PMC10397247
